Assays:
[1] = tested on: His-TRIM25 (Homo sapiens); assay: EMSA; conditions: 3 mM Mg2+, 0.5 mM ATP; EMSA: 4.8 mM Tris pH 8, 144 mM NaCl, 0.96 mM DTT, 3 mM MgCl2, 0.5 mM ATP, 37.5 mM creatine phosphate, 16 uL, ~0.1 pmol RNA, 4 C 1 h; pull-down conditions not …
[2] = target: the molecule itself; assay: SEC-MALS; approximately 0.75 mg/mL on Superdex200 Increase 10/300 GL, 1.0 mL/min, 10 mM Tris (pH 8.0), 300 mM NaCl, 0.5 mM TCEP; self-association (tetramer)

Molecule | Kd [1] | stoichiometry N [2]
pre-let-7a-1 | 800 nM | 
recombinant His-tagged TRIM25ΔRBD (lacking residues 470–508) (natural protein, human, UniProt Q14258 1-630, looked up) MAELCPLAEELSCSICLEPFKEPVTTPCGHNFCGSCLNETWAVQGSPYLCPQCRAVYQARPQLHKNTVLCNVVEQFLQADLAREPPADVWTPPARASAPSPNAQVACDHCLKEAAVKTCLVCMASFCQEHLQPHFDSPAFQDHPLQPPVRDLLRRKCSQHNRLREFFCPEHSECICHICLVEHKTCSPASLSQASADLEATLRHKLTVMYSQINGASRALDDVRNRQQDVRMTANRKVEQLQQEYTEMKALLDASETTSTRKIKEEEKRVNSKFDTIYQILLKKKSEIQTLKEEIEQSLTKRDEFEFLEKASKLRGISTKPVYIPEVELNHKLIKGIHQSTIDLKNELKQCIGRLQEPTPSSGDPGEHDPASTHKSTRPVKKVSKEEKKSKKPPPVPALPSKLPTFGAPEQLVDLKQAGLEAAAKATSSHPNSTSLKAKVLETFLAKSRPELLEYYIKVILDYNTAHNKKGIHYWEVELQKNNFCGVGICYGSMNRQGPESRLGRNSASWCVEWFNTKISAWHNNVEKTLPSTKATRVGVLLNCDHGFVIFFAVADKVHLMYKFRVDFTEALYPAFWVFSAGATLSICSPK |  | 4

Reference: article PMC5678581 (BMC Biology, 2017)
